Test results reported in the nanobody polyreactivity screen of Harvey et al. (2022).

Test: yeast display, Sf9 membrane polyspecificity reagent, FACS + sequencing; frameworks hold sequencing errors
How it was run: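 After 36–48 hours of galactose induction, yeast (Saccharomyces cerevisiae BJ5465) displaying a synthetic nanobody library were stained at 4 °C for 1 hour with 10% biotinylated, detergent-solubilized Sf9 membrane reagent. Streptavidin microbeads enriched the stained cells before FACS sorting into low and high (top ~1%) gates on anti-HA and streptavidin fluorescence. Each clone's polyreactivity label reflects its gate of origin.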
In the case of “QVHLVVSGGGLVQAGGSLRLSCAASGLTIWYYAMGWYRQAPGKESEFVAAITSRGGDTYYADSVKGRFTISRDNAKNTVYLQMNSLKPEDTAVYYCAVRPRYYGTYRYYYWGQGTQVTVSS”, the “polyreactivity (PSR sort gate)” value is reported as “high polyreactivity”. For “QVHSVESGGGLVQAGGSLRLSCSASGIIFYSYAMGWYRQAPGKERELVAGITIVGSTIYADSVKGRFTISRDNPKTTVYLQMISLKAEATAVYYCNKADLHFIEMDYWGQATQVTVSS”, the “polyreactivity (PSR sort gate)” value was “low polyreactivity”. With “QVHVVESGGGLVQAGVSLLLSCAASGRTFYRNAMGWYRQAPGKERELVAAISSRGGSTYYADSVKGRFTISRDNAKNTVYLQMNSLKPEDTAVYYCAANYGYGGDYDYWVQGTQVTVSS” the “polyreactivity (PSR sort gate)” value was “high polyreactivity”. With “QVKLEESGGGLVQAGGSLRLSCAASGSTFRAYTMGWYRQAPAKEREFVAAISRSGGSTFYADSVKGRFTISRDYAKNTVYLQMNSLKPEDNAVYYCAASYRYSASYYWGEGTQVTVSS” the “polyreactivity (PSR sort gate)” value was “high polyreactivity”. With “QVKLEESGGRLVQAGGTLRLRCAASGIIYRFYTIGWYRQAPGKERELVAAIRSGGRTYYADSVKGRFTISRDNAKNTVYLQINSLKPEDSAVYYCAKEPSRYSRYNYWGQGTQVTVSS” the “polyreactivity (PSR sort gate)” value was “high polyreactivity”. With “QVKLGESGGGLVQAGGSLRLSCAASGSILEFNAKGWYRQAPGKERELVAGITRDGGTTYADSVKGRFTISRDNAKNNVYFQMNSLKPEDNAVYYCAGTYYFSRWDLYGYWGHGTQVTVSS” the “polyreactivity (PSR sort gate)” value was “low polyreactivity”. With “QVKLKESVGGLVQAGGSLRLSCAASGSISATGNMGWYRQAPGEERELVAAINFGSNTYYADSVKGRFTISRDNAKNTVYLQKSGLKPEDTAVYYCAVDGWYVGPYYYWGQGTQVTVSS” the “polyreactivity (PSR sort gate)” value was “high polyreactivity”. With “QVKLQESGGGLVQAGGSLRLSCAASGYIFLHYYMGWYRQAPGKEREFVAGITSGTNTNYADSVKGRFTIRDNAKNTVYLQMNSLKPEDTAVCYCAVTYPYWGDYTYWGQGTQVTVSS” the “polyreactivity (PSR sort gate)” value was “low polyreactivity”. In the case of “QVKLVDSGGGLVQAGGILRLSCAASGRIFSDYAMGWYRQAPGKERELVATITSGDSTNYADSVKGRFTISRDNAKNTVYLQMNSLKPEDTAVYYCNADRVYVRGRFTYDYWGQGTQVTVSS”, the “polyreactivity (PSR sort gate)” value is reported as “low polyreactivity”. With “QVKLVDSGGGLVQAGGSLRISCAASGRIFGRYTMGWYRQAPGKERELVAGITYSGGSTYYADSVKGRFTISRDNAKNTVYLQMNSLKPEDTAVYYCAARLSGSGGFDYWGQGTQVTVSS” the “polyreactivity (PSR sort gate)” value was “high polyreactivity”. For “QVKLVDSGGGLVQAGGSLRISCGASGRTFYGYDMGWYRQAPGKERELVAAINWRGVRTYYADSVKGRFTISRDNAKNTDYLEMNCLKPEDTAVYYCGVYNHWVYGNDYWGQGTQVTVSS”, the “polyreactivity (PSR sort gate)” value was “high polyreactivity”. In the case of “QVKLVDSGGGLVQAGGSLRLSCAASGRIAVNAMGWYRQAPGKERELVAAISVSGGSTNYADSVKGRFTISRDNAKNTVYLQMNSLKPEDTAVYYCAARAFDPILRNDYSGQGTQVTVSS”, the “polyreactivity (PSR sort gate)” value is reported as “low polyreactivity”. In the case of “QVKLVDSGGGLVQAGGSLRLSCAASGRIIRINAMGWYRQAPGKERELVAAITRGGTTYADSVKGRFTISRDNAKNTVYLQMNSLKPEDTAVYYCNARTGRSPTGFRYWGQGTQVTVSS”, the “polyreactivity (PSR sort gate)” value is reported as “high polyreactivity”. For “QVKLVESAGGLVQARGSLRLSCAGSGITFVRNAMGWYRQAPGKERELVAAISSGGSTYYADSVKGRFTISRDNAKNTVYLQMNSLKPEDTAVYYCNAQIYGRLYRYRWHFYWGQGTQVTVSS”, the “polyreactivity (PSR sort gate)” value was “high polyreactivity”. In the case of “QVKLVESGAGLVHAGGSLRLSCAASGFIFFYYAMGRYRQAPGKERYLVATISANGGNTYYADSVKGRFTISRDNAKNTVYLQMNRLKPEDTAVYYCARYTWYLRDWQWYYWGDEDYWGQGTQVTVSS”, the “polyreactivity (PSR sort gate)” value is reported as “high polyreactivity”. For “QVKLVESGGCLVQAGCSLSLSCAASGRTFVTYAMGWYRQAPGKEREFVAAISWSGVSTYYADSVKGRFTISRDNAKNTVYLQMNSLKPEDTAVYYCAAKRVRALYGGSEGGYWGQGTQVTVSS”, the “polyreactivity (PSR sort gate)” value was “low polyreactivity”. In the case of “QVKLVESGGGIVQAGGSLRLSCAASGIIFARNAMGCYRQAPGKERELVAGINGGRKNYADSVKGSFTISRDNAKNTVYLQMNSLKPEDSAVYYCAARNKGTLYRYGYWGQGTQVTVSS”, the “polyreactivity (PSR sort gate)” value is reported as “high polyreactivity”. With “QVKLVESGGGLVHAGGSLRLSCAASGFIFYYYAMGWYRQAPGKERELVAAITSSGGSTYYADSVKGRFTISRDNAKNTVYLQMNSLKPEDTAVYYCNARYVSASRNRGTSRYDYWGQGTQVTVSS” the “polyreactivity (PSR sort gate)” value was “high polyreactivity”. In the case of “QVKLVESGGGLVKAGGILRLSCAASGRTFRRNAMGWYRQPPGKESELVAAISSSGGSTYYADSVKGRFTISRDNAKNTVYLQMNSLKPEDTAVYYCNAYRYYVYDTYDGHGYWGQGTQVTVSS”, the “polyreactivity (PSR sort gate)” value is reported as “high polyreactivity”. In the case of “QVKLVESGGGLVQAGASLRLSVAASGNIFSVNTIGTYRQAPGKERELVAAITRRSGRTYYADSVKGRFTISRDNAKNTVFLQMNSLNPEDTAVYYCAASWRGASVIRFDYWGQGTQVTVSS”, the “polyreactivity (PSR sort gate)” value is reported as “high polyreactivity”. For “QVKLVESGGGLVQAGGSHRLSCAASGSIFGDYVMGSYRQAPGKEMELVAAINRGGSTYYADSVKGRFTISRDNAKNTVYLQMNSLKPADTAVYYCAAGYPSWYYGYPYDSWGQGTQVTVSS”, the “polyreactivity (PSR sort gate)” value was “low polyreactivity”. In the case of “QVKLVESGGGLVQAGGSLRLICAASGMTFVIYAMGWYRQAPGKERELVARNTWSGGSTYYADSEKGRFTISRDNSKNTVYLQMNSLNPEDSAVYYCAARRFYYYTAGYDYWGQGTQVTVSS”, the “polyreactivity (PSR sort gate)” value is reported as “low polyreactivity”. In the case of “QVKLVESGGGLVQAGGSLRLSCAASGFIFIDNTMGWYRQEPGKERELVAGINTSGASTHYADSVKGRFTISRDYAKNTVYLQMNSLKPEDTAVYYCNRGDLPKADYNDYSYDYDYRGQGTQVTVSS”, the “polyreactivity (PSR sort gate)” value is reported as “low polyreactivity”. With “QVKLVESGGGLVQAGGSLRLSCAASGFIFKANAMGWYRQAPGKETELVAAITWRDGNTNYADSVKGRFTISRDNAKNTVYLQMNSLKPEDTAGYYCAVRLLADDGYPAVVGDDYWGQGTQVTVSS” the “polyreactivity (PSR sort gate)” value was “low polyreactivity”. For “QVKLVESGGGLVQAGGSLRLSCAASGFIFLLYDMGWYRQAPGKERELVAANTSDGTTNYADSVKGRFTISRDNAKNTVYLQMNSLKPEDTAVYYCAADDEPYVYEVTAYLGYEYWGQGTQVTVSS”, the “polyreactivity (PSR sort gate)” value was “high polyreactivity”. With “QVKLVESGGGLVQAGGSLRLSCAASGFTFEEYAMGCYRQSPGKERELVAAISASGGRTYYADSVKRRFTISRDNAKNTVYLQMNSLKPEDTAVYYCAAGYRGRRIMDYWGQGTQVTVSS” the “polyreactivity (PSR sort gate)” value was “high polyreactivity”. With “QVKLVESGGGLVQAGGSLRLSCAASGFTFEYYAMGWYRQAPGKERELVAAIRSDSGTNYADSVKGRFTISRDNAKNTVYLQMNSLKPEDTAVYYCAAPTVVLIDYDYWGQGTQVTVSS” the “polyreactivity (PSR sort gate)” value was “low polyreactivity”. With “QVKLVESGGGLVQAGGSLRLSCAASGFTFSRNTMGWYRQAPGKERELVATISFRGGTTYYADSVKGRFTISRDNAKNTVYLQMNSLKPEDTAVYYCAVKVGFVRLLYHYYYWGQGTQVTVSS” the “polyreactivity (PSR sort gate)” value was “high polyreactivity”. For “QVKLVESGGGLVQAGGSLRLSCAASGFTYSANTMGWSRQAPGKERELVAAITRGGRPYYADSVKGRFTISRDNAKNTVYFQMNSLKPEDTAVYYCAKRATWYTVPREGYWGQGTQVTVSS”, the “polyreactivity (PSR sort gate)” value was “high polyreactivity”. With “QVKLVESGGGLVQAGGSLRLSCAASGGTFQPNARGWNRQAPGKERELVAAISWSDGSTYYADSVKGRFTISRDNAKNTVYLQMNSLKPEDTAVYYCAADFTYYDSPYRDYNYESWGQGTQVTVSS” the “polyreactivity (PSR sort gate)” value was “low polyreactivity”. For “QVKLVESGGGLVQAGGSLRLSCAASGIIFQYYAMGWYRQAPGKESELVAAISWSGGSTYYADSVKGRFTISRDNAKNTVYLQMNSLKPEDTAVYYCAARSRSYWPYEGYYWGQGTQVTVSS”, the “polyreactivity (PSR sort gate)” value was “low polyreactivity”. For “QVKLVESGGGLVQAGGSLRLSCAASGIIFYRYAMGWYRQAPGKERELVAAISGRTGRTYYADSVKGRFTISRDNAKNTVYLQMNSLKPEDTAVYYCAADYYHYRYQTRLDYWGQGTQVTVSS”, the “polyreactivity (PSR sort gate)” value was “high polyreactivity”. For “QVKLVESGGGLVQAGGSLRLSCAASGITIRFNAMGWYRQAPGKERELVPAITSSGGRTYYADSVKVRFTISRDNAKNTVYLQMNSLKPEDTAVYYCAAYYRYSTTEDRSVYRGYYYWGQGTQVTVSS”, the “polyreactivity (PSR sort gate)” value was “high polyreactivity”. For “QVKLVESGGGLVQAGGSLRLSCAASGLIFQNYAMVWYRQAPGKERELVAAISRRGGRTNYADSVKGRFTISRDNAKNNVYLQMKSLKPEDTAVYYCNAKARQSYYYRFDYWGQGTQVTVSS”, the “polyreactivity (PSR sort gate)” value was “high polyreactivity”. In the case of “QVKLVESGGGLVQAGGSLRLSCAASGLTLQWYALGWYRQAHGKERDLVAAISYNGGDTYYADSVKGRFTISRDNAKNTVYLQMNSLKPEDTAVYYCAAYWYVGVNYSQRRDYWGQGTQVTVSS”, the “polyreactivity (PSR sort gate)” value is reported as “low polyreactivity”. In the case of “QVKLVESGGGLVQAGGSLRLSCAASGNTFGGYAMGWYRQAPGKERELVAAISSSGGSTYYADSVKGRFTISRDNAKNTVYLQMNSLKPEDTAVYYCAAYGGFYGYWTMGYWGQGTQVTVSS”, the “polyreactivity (PSR sort gate)” value is reported as “high polyreactivity”. With “QVKLVESGGGLVQAGGSLRLSCAASGRIFGYNAMGWYRQAPGKERELVAAISRSGGTTYYADSVKGRFTISRDNSKNTVNLQMNRLKPEDTEVYYCAAYYRTRVPYDMDYWGQGTQVTVSS” the “polyreactivity (PSR sort gate)” value was “high polyreactivity”. With “QVKLVESGGGLVQAGGSLRLSCAASGRIFQPYAMGWYRQAPGKERELVADITYRDGSTYFADSVKGRFTISRDNAKNTVYLQMNSLKPEDTAVYYCNADGEYAKDDWFHWYDYWGQGTQVTVSS” the “polyreactivity (PSR sort gate)” value was “high polyreactivity”. With “QVKLVESGGGLVQAGGSLRLSCAASGRIFSGYAMGWYIQAPGKESEFVAAITWNGVSTYYADSVKVRFTISRDNAKNTVYLLMNSLKPEDTAVYYCAKDYVYYPSYRGSVNYWGQGTQVTVSS” the “polyreactivity (PSR sort gate)” value was “low polyreactivity”. With “QVKLVESGGGLVQAGGSLRLSCAASGRTFGYNAMGWYRQAPGKERELVASINWSGGRTYYADSVKGRFTISRDNAKNTVYLQMYSLKPEDTAVYYCAKGFTRVQQQYQYLFGYWGQGTQVTVSS” the “polyreactivity (PSR sort gate)” value was “low polyreactivity”. In the case of “QVKLVESGGGLVQAGGSLRLSCAASGRTFINYAMGWYRQAPGKERELVAAITTGGRTNYADSVKGRFTISRDNSKNTVYLQMNSLKPEDTEVYYCAADRYDWGRNTLNYWGQGTQVTVSS”, the “polyreactivity (PSR sort gate)” value is reported as “low polyreactivity”. With “QVKLVESGGGLVQAGGSLRLSCAASGRTFYINAMGWYRQAPGKERELVAAISRVGSTNYADSVKGRFTISRDNAKNTVYLQMNSLKPEDTEVYYCAARSRGGRRYYYWGQGSQVTVSS” the “polyreactivity (PSR sort gate)” value was “high polyreactivity”. In the case of “QVKLVESGGGLVQAGGSLRLSCAASGSTFYQNAMGWYRQAQGKEREFVAAISGSGDRTNYADSVKARFTISRDNAKNTVYLQMNSLKPEDTAVYFCAARGQPGRRTSSGFFSGGYCGQGTQVTVSS”, the “polyreactivity (PSR sort gate)” value is reported as “high polyreactivity”.
